The test deals with PPO-deficient BT3 E. coli (ΔPPO). Put plainly: PPO-inhibiting herbicide tolerance test of PPO variants in E. coli (growth on herbicide-containing LB agar). It is filed as cell-based. Conditions: LB agar with 0 to 2,000 μM herbicide, 37° C., dark, 16-20 hours. A digest of the protocol:
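Transformants were grown to OD600 0.5–1, adjusted to OD600=0.5 and spotted as 10-fold dilutions on LB agar with ampicillin (100 μg/mL) and 0 to 2,000 μM herbicide. Plates were kept at 37° C in the dark for 16-20 hours; growth was scored relative to wild type, one '+' per 10-fold resistance.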

[1] abbreviates: CyPPO18 variants in BT3 (ΔPPO) E. coli.
[2] abbreviates: CyPPO19 variants in BT3 (ΔPPO) E. coli.

B1: CyPPO18 R89A + V165S + V305M + F360I: variant of CyPPO18 PPO protein (SEQ ID NO: 3) (protein)
chain: MIEVDVAIVGGGLSGLSVAWRLQRSAPHYSGVLLEASDRLGGNITTQAAEGFVWELGPNSFAPTPALLQLIAEVGLHSELIRGDRHLPAYIYWRGELYPLEPTRPLALATSNLLSPWGKVRAALGALGFVPPYLGSGDESVDSFFRRHLGQEVAERLVAPFVSGSYAGDPQQLSAAAAFRRIAQLEKLGGSLIAGALRLRRQQPPQPKPPAQVQMRPGELGSFREGLAALPRAIAQQLKAPLHLQTPVEAITPEPKGGYLLRSGEQTWHARSVVLATPAYQSAELVAPFQPAIARALATIPYPTMACVVLAYPAGLGRSVRPGFGVLVPRGQGIRTLGTIWSSCLFPQRTPAGWQVFTSIIGGATDPDLASLREEAIVEQVQQDLTRLLDLPAAKARLLGMKVWRRAIPQYIVGYPQQWQQLTHALTQTPGLFLCSNYAEGVALGDRVEHGNRTAAAVAAYLAGGQS
modifications: Synthetic_PPO of Thermosynechococcus vulcanus NIES-2134 (BAY51976)
For B1, under setting [1], the “tolerance level relative to wild type, Carfentrazone” value is on record as “++ (‘+’ per each 10-fold resistance)”; the “tolerance level relative to wild type, Flumioxazin” value is “+++++ (until ‘+++++’ as maximal resistance)”; the “tolerance level relative to wild type, Fomesafen” value is “+++++ (until ‘+++++’ as maximal resistance)”; the “tolerance level relative to wild type, Oxyfluorfen” value is recorded as “++ (‘+’ per each 10-fold resistance)”. Under setting [1], the “tolerance level relative to wild type, Saflufenacil” value is “+++++ (until ‘+++++’ as maximal resistance)”; the “tolerance level relative to wild type, Sulfentrazone” value is “+++++ (until ‘+++++’ as maximal resistance)”; the “tolerance level relative to wild type, Tiafenacil” value is on record as “+++++ (until ‘+++++’ as maximal resistance)”.

B2: CyPPO19 R89A + A167L + F360T: variant of CyPPO19 PPO protein (SEQ ID NO: 1) (protein)
chain: MSEVDVAIVGGGLSGLSLAWRLQQSAPQYSVVLLEASDRLGGNITTQTAEGFVWELGPNSFAPTPALLQLIAEVGLQSELIRGDRHLPAYIYWRGQLYPLQPTRPLALATSNLLSPWGKVRAALGALGFVPPYLGSGDESVNSFFRRHLGQEVAERLVAPFVSGVYLGDPQQLSAAAAFRRIAQLEKLGGGLIAGALHLRRQQAPKPKPPTSVQMRPGELGSFKEGLAALPRAIAQQLKAPIHLQTPVQEITPDPKGGYLLRSGEQTWRARSVVLATPAYQTAELVAPFQPAIARVLATIPYPTVACVVLAYPAGLGRSVRPGFGVLIPRSQGIRTLGTIWSSCLFPQRTPAGWQVFTSTIGGATDPDLASLSEEAIVQQVQQDLNRLLDLPAAKARLLGMKVWRRAIPQYMVGYPEQWQQVTHALSQTPGLFLCSNYAEGVALGDRVEHGNRTAAAVAAYLSGGQP
modifications: Synthetic_PPO of Thermosynechococcus elongatus PKUAC-SCTE542 (comprising GenBank No. CP032152.1)
With B2, under setting [2], the “tolerance level relative to wild type, Carfentrazone” value is “++ (‘+’ per each 10-fold resistance)”; the “tolerance level relative to wild type, Flumioxazin” value is “++++ (‘+’ per each 10-fold resistance)”; the “tolerance level relative to wild type, Fomesafen” value was “++ (‘+’ per each 10-fold resistance)”; the “tolerance level relative to wild type, Oxyfluorfen” value is “++ (‘+’ per each 10-fold resistance)”. Further, under setting [2], the “tolerance level relative to wild type, Saflufenacil” value is reported as “++++ (‘+’ per each 10-fold resistance)”; the “tolerance level relative to wild type, Sulfentrazone” value is “+++ (‘+’ per each 10-fold resistance)”; the “tolerance level relative to wild type, Tiafenacil” value was “++++ (‘+’ per each 10-fold resistance)”.

B3: CyPPO19 R89A + V305M + F360V: variant of CyPPO19 PPO protein (SEQ ID NO: 1) (protein)
chain: MSEVDVAIVGGGLSGLSLAWRLQQSAPQYSVVLLEASDRLGGNITTQTAEGFVWELGPNSFAPTPALLQLIAEVGLQSELIRGDRHLPAYIYWRGQLYPLQPTRPLALATSNLLSPWGKVRAALGALGFVPPYLGSGDESVNSFFRRHLGQEVAERLVAPFVSGVYAGDPQQLSAAAAFRRIAQLEKLGGGLIAGALHLRRQQAPKPKPPTSVQMRPGELGSFKEGLAALPRAIAQQLKAPIHLQTPVQEITPDPKGGYLLRSGEQTWRARSVVLATPAYQTAELVAPFQPAIARVLATIPYPTMACVVLAYPAGLGRSVRPGFGVLIPRSQGIRTLGTIWSSCLFPQRTPAGWQVFTSVIGGATDPDLASLSEEAIVQQVQQDLNRLLDLPAAKARLLGMKVWRRAIPQYMVGYPEQWQQVTHALSQTPGLFLCSNYAEGVALGDRVEHGNRTAAAVAAYLSGGQP
modifications: Synthetic_PPO of Thermosynechococcus elongatus PKUAC-SCTE542 (comprising GenBank No. CP032152.1)
In the case of B3, under setting [2], the “tolerance level relative to wild type, Carfentrazone” value is given as “+ (‘+’ per each 10-fold resistance)”; the “tolerance level relative to wild type, Flumioxazin” value was “+++ (‘+’ per each 10-fold resistance)”; the “tolerance level relative to wild type, Fomesafen” value is on record as “+ (‘+’ per each 10-fold resistance)”; the “tolerance level relative to wild type, Oxyfluorfen” value is “+ (‘+’ per each 10-fold resistance)”. For the same molecule, under setting [2], the “tolerance level relative to wild type, Saflufenacil” value is given as “+++ (‘+’ per each 10-fold resistance)”; the “tolerance level relative to wild type, Sulfentrazone” value is listed as “++ (‘+’ per each 10-fold resistance)”; the “tolerance level relative to wild type, Tiafenacil” value is “+++ (‘+’ per each 10-fold resistance)”.

B4: CyPPO19 R89A + V305M + F360I: variant of CyPPO19 PPO protein (SEQ ID NO: 1) (protein)
chain: MSEVDVAIVGGGLSGLSLAWRLQQSAPQYSVVLLEASDRLGGNITTQTAEGFVWELGPNSFAPTPALLQLIAEVGLQSELIRGDRHLPAYIYWRGQLYPLQPTRPLALATSNLLSPWGKVRAALGALGFVPPYLGSGDESVNSFFRRHLGQEVAERLVAPFVSGVYAGDPQQLSAAAAFRRIAQLEKLGGGLIAGALHLRRQQAPKPKPPTSVQMRPGELGSFKEGLAALPRAIAQQLKAPIHLQTPVQEITPDPKGGYLLRSGEQTWRARSVVLATPAYQTAELVAPFQPAIARVLATIPYPTMACVVLAYPAGLGRSVRPGFGVLIPRSQGIRTLGTIWSSCLFPQRTPAGWQVFTSIIGGATDPDLASLSEEAIVQQVQQDLNRLLDLPAAKARLLGMKVWRRAIPQYMVGYPEQWQQVTHALSQTPGLFLCSNYAEGVALGDRVEHGNRTAAAVAAYLSGGQP
modifications: Synthetic_PPO of Thermosynechococcus elongatus PKUAC-SCTE542 (comprising GenBank No. CP032152.1)
On to B4, for which, under setting [2], the “tolerance level relative to wild type, Carfentrazone” value is “+ (‘+’ per each 10-fold resistance)”; the “tolerance level relative to wild type, Flumioxazin” value is reported as “+++ (‘+’ per each 10-fold resistance)”; the “tolerance level relative to wild type, Fomesafen” value is recorded as “+ (‘+’ per each 10-fold resistance)”; the “tolerance level relative to wild type, Oxyfluorfen” value is recorded as “+ (‘+’ per each 10-fold resistance)”. Under setting [2], the “tolerance level relative to wild type, Saflufenacil” value is on record as “+++ (‘+’ per each 10-fold resistance)”; the “tolerance level relative to wild type, Sulfentrazone” value is reported as “++ (‘+’ per each 10-fold resistance)”; the “tolerance level relative to wild type, Tiafenacil” value is “+++ (‘+’ per each 10-fold resistance)”.

The record behind these values is patent US12698507B2, “Methods and compositions for conferring and/or enhancing herbicide tolerance using protoporphyrinogen IX oxidase of various cyanobacteria or variant thereof” (FarmHannong Co., Ltd., priority 2019, dated 2026).
